Results reported in publication PMC12957798 (2025).

Legend:
EGFR [1] = molecular target: T1, EGFR (Homo sapiens, UniProt P00533); assay: SPR
EGFR [2] = molecular target: T1, EGFR; assay: BLI

| Binder | Kd (EGFR [1]) [nM] | Kd (EGFR [2]) [nM] |
| --- | --- | --- |
| SFMPLSIPIMCKMLSKC | 148 | – |
| SFMPLSIPIMCKMLSKC (biotinylated EGFR) | – | 229 |
